This is an account of results in patent publication US20170152307A1 (Janssen / Centocor, published 2017).

In experiment [1] the target is T1, ptau 404-421 (human).
T1 construct: also called ptau 404-421 p414
Briefly: peptide ELISA.
Experimental: (§1) Briefly, 96-well streptavidin-binding plates (Thermo-Fisher) were coated with 2 μg/ml of tau peptides diluted in TBS and incubated overnight at 4° C. […] Plates were washed five times with TBS-T followed by the addition of secondary antibody [goat Anti-Human IgG F(ab′)₂ (Jackson Labs) at 1:2000 dilution], diluted in TBS plus 0.25% BSA, and incubated at RT for 1 hour. Following incubation, plates were washed four times in TBS-T and developed with SureBlue Reserve TMB Microwell Peroxidase Substrate (KPL) for approximately 90 seconds. The reaction was immediately halted by the addition of TMB Stop Solution (KPL) and the absorbance at 450 nm was measured using an ELISA plate reader. Each experiment was conducted in triplicate across three different days. Reactivity was considered positive when values were equal to or higher than an OD of 0.4 in the ELISA assay. […] (−) for average of two O.D. 450 nm readings <0.3; (−/+) for >0.5 and <1.0; (+) for >1.0 and <1.5; (++) for >1.5. […] (−) for average of three O.D. 450 nm readings <0.3; (−/+) for >0.5 and <1.0; (+) for >1.0 and <1.5; (++) for >1.5.

Experiment [2] deals with ptau 406-423 (human). Briefly: peptide ELISA. (In general: In an ELISA, binding on a coated surface is turned into a signal by an enzyme label.)
Experimental: as §1
Experiment [3] has as its target ptau 406-429 (pS416, pS422) (human). Kind of experiment: peptide ELISA, 1 ug/mL IgG.
Experiment [4] deals with ptau 404-429 (human). Briefly: peptide ELISA, 1 ug/mL IgG.
The target in experiment [5] is ptau 412-429 (human). Briefly: peptide ELISA, 1 ug/mL IgG.
The target of experiment [6] is T2, ptau 412-434 (human).
T2 construct: also called ptau 412-434 p422, 427
Briefly: peptide ELISA, 1 ug/mL IgG.

Experiment [7] has as its target ptau 299-323 p305, 316 (human). Briefly: peptide ELISA, biotinylated peptide on streptavidin plate, IgG titrated (Example 14).
Experimental: (§2) Plates were washed five times with TBS-T followed by the addition of secondary antibody [goat Anti-Human IgG F(ab′)₂ (Jackson Labs) at 1:2000 dilution], diluted in TBS plus 0.25% BSA, and incubated at RT for 1 hour. Following incubation, plates were washed four times in TBS-T and developed with SureBlue Reserve TMB Microwell Peroxidase Substrate (KPL) for approximately 90 seconds. The reaction was immediately halted by the addition of TMB Stop Solution (KPL) and the absorbance at 450 nm was measured using an ELISA plate reader. Each experiment was conducted in triplicate across three different days. Reactivity was considered positive when values were equal to or higher than an OD of 0.4 in the ELISA assay. […] (−) for average of two O.D. 450 nm readings <0.3; (−/+) for >0.5 and <1.0; (+) for >1.0 and <1.5; (++) for >1.5. […] (−) for average of three O.D. 450 nm readings <0.3; (−/+) for >0.5 and <1.0; (+) for >1.0 and <1.5; (++) for >1.5.
(§3) (−) for average of two O.D. 450 nm readings <0.3; (−/+) for >0.5 and <1.0; (+) for >1.0 and <1.5; (++) for >1.5.
The target in experiment [8] is T3, tau 52-71 (A62) (human, N-terminal biotin; not carried in the letters).
T3 construct: E62A
T3 peptide: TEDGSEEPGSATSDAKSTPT
Kind of experiment: alanine-scan peptide ELISA.
Experimental: as §2
(§4) To further characterize the specificity and amino acid contribution to binding of each of the recover mAbs, their reactivity to tau peptides with each position replaced with Alanine was tested by ELISA. […] (−) for average of two O.D. 450 nm readings <0.3; (−/+) for >0.5 and <1.0; (+) for >1.0 and <1.5; (++) for >1.5.

Experiment [9] deals with T4, tau 52-71 (A65) (human, N-terminal biotin on the synthetic peptide; not carried in the letters).
T4 construct: D65A
T4 peptide: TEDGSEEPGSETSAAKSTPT
Briefly: alanine-scan peptide ELISA.
Experimental: as §2, §4

Experiment [10] deals with T5, tau 52-71 (A67) (human, N-terminal biotin on the synthetic peptide; not carried in the letters).
T5 construct: K67A
T5 peptide: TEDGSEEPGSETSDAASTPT
Briefly: alanine-scan peptide ELISA.
Experimental: as §2, §4

The target of experiment [11] is T6, tau 52-71 (A52) (human, N-terminal biotin, not carried by the letters).
T6 construct: T52A
T6 peptide: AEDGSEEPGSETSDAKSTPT
Briefly: alanine-scan peptide ELISA, 1 ug/mL IgG.
Experimental: as §2, §4

The target of experiment [12] is T7, tau 52-71 (A53) (human, N-terminal biotin, not carried by the letters).
T7 construct: E53A
T7 peptide: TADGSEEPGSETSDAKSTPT
Kind of experiment: alanine-scan peptide ELISA, 1 ug/mL IgG.
Experimental: as §2, §4

Experiment [13] has as its target T8, tau 52-71 (A54) (human, N-terminal biotin, not carried by the letters).
T8 construct: D54A
T8 peptide: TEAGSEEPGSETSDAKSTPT
Kind of experiment: alanine-scan peptide ELISA, 1 ug/mL IgG.
Experimental: as §2, §4

Experiment [14] addresses T9, tau 52-71 (A55) (human, N-terminal biotin (all tau peptides were synthesized with an amino-terminal biotin group); not carried in the letters).
T9 construct: G55A
T9 peptide: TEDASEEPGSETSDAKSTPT
Kind of experiment: alanine-scan peptide ELISA, 1 ug/mL IgG.
Experimental: as §2, §4

The target in experiment [15] is T10, tau 52-71 (A56) (human, N-terminal biotin; not carried in the letters).
T10 construct: S56A
T10 peptide: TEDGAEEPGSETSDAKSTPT
Kind of experiment: alanine-scan peptide ELISA, 1 ug/mL IgG.
Experimental: as §2, §4

For experiment [16], the target named is T11, tau 52-71 (A57) (human, N-terminal biotin; not carried in the letters).
T11 construct: E57A
T11 peptide: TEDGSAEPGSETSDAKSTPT
Briefly: alanine-scan peptide ELISA, 1 ug/mL IgG.
Experimental: as §2, §4

For experiment [17], the target named is T12, tau 52-71 (A58) (human, N-terminal biotin; not carried in the letters).
T12 construct: E58A
T12 peptide: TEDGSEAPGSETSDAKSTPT
Briefly: alanine-scan peptide ELISA, 1 ug/mL IgG.
Experimental: as §2, §4

Experiment [18] has as its target T13, tau 52-71 (A59) (human, N-terminal biotin; not carried in the letters).
T13 construct: P59A
T13 peptide: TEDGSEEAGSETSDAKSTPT
Briefly: alanine-scan peptide ELISA, 1 ug/mL IgG.
Experimental: as §2, §4

For experiment [19], the target named is T14, tau 52-71 (A60) (human, N-terminal biotin; not carried in the letters).
T14 construct: G60A
T14 peptide: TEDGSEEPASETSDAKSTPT
Briefly: alanine-scan peptide ELISA, 1 ug/mL IgG.
Experimental: as §2, §4

Experiment [20] concerns the target T15, tau 52-71 (A61) (human, N-terminal biotin; not carried in the letters).
T15 construct: S61A
T15 peptide: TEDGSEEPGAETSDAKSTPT
Kind of experiment: alanine-scan peptide ELISA, 1 ug/mL IgG.
Experimental: as §2, §4

Experiment [21] deals with T16, tau 52-71 (A63) (human, N-terminal biotin on the synthetic peptide; not carried in the letters).
T16 construct: T63A
T16 peptide: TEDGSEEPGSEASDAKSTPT
Kind of experiment: alanine-scan peptide ELISA, 1 ug/mL IgG.
Experimental: as §2, §4

For experiment [22], the target named is T17, tau 52-71 (A64) (human, N-terminal biotin on the synthetic peptide; not carried in the letters).
T17 construct: S64A
T17 peptide: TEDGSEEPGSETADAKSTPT
Briefly: alanine-scan peptide ELISA, 1 ug/mL IgG.
Experimental: as §2, §4

Experiment [23] deals with T18, tau 52-71 (A68) (human, N-terminal biotin on the synthetic peptide; not carried in the letters).
T18 construct: S68A
T18 peptide: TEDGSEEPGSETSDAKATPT
Kind of experiment: alanine-scan peptide ELISA, 1 ug/mL IgG.
Experimental: as §2, §4

Experiment [24] addresses T19, tau 52-71 (A69) (human, N-terminal biotin on the synthetic peptide; not carried in the letters).
T19 construct: T69A
T19 peptide: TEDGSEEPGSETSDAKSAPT
Briefly: alanine-scan peptide ELISA, 1 ug/mL IgG.
Experimental: as §2, §4

The target in experiment [25] is T20, tau 52-71 (A70) (human, N-terminal biotin on the synthetic peptide; not carried in the letters).
T20 construct: P70A
T20 peptide: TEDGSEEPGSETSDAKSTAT
Briefly: alanine-scan peptide ELISA, 1 ug/mL IgG.
Experimental: as §2, §4

The target in experiment [26] is T21, tau 52-71 (A71) (human, N-terminal biotin on the synthetic peptide; not carried in the letters).
T21 construct: T71A
T21 peptide: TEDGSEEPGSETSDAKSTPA
Kind of experiment: alanine-scan peptide ELISA, 1 ug/mL IgG.
Experimental: as §2, §4

The target of experiment [27] is T22, ptau 48-71 (p64) (human).
T22 construct: also called ptau 48-71 (Ser64)
Briefly: peptide ELISA, biotinylated peptide on streptavidin plate, IgG titrated (Example 14).
Experimental: as §2, §3

For experiment [28], the target named is T23, tau 42-61 (human, N-terminal biotin, not carried by the letters).
T23 peptide: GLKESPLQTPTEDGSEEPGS
Kind of experiment: peptide ELISA, biotinylated overlapping peptide on streptavidin plate, IgG titrated (Example 9).
Experimental: as §1

Experiment [29] concerns the target T24, tau 62-81 (human, N-terminal biotin, not carried by the letters).
T24 peptide: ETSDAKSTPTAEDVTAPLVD
The experiment is described as above.
Experimental: as §1

The target in experiment [30] is T25, tau 72-91 (human, N-terminal biotin, not carried by the letters).
T25 peptide: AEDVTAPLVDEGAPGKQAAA
The description is as above.
Experimental: as §1

Experiment [31] has as its target tau 82-103 (human, N-terminal biotin, not carried by the letters). The experiment is described as above.
Experimental: as §1
Experiment [32] has as its target T26, tau 405-423 (human).
T26 peptide: Biotin-PRHLSNVSSTGSIDMVDSP
Briefly: peptide ELISA.
Experimental: as §1

In experiment [33] the target is T27, tau 409-428 (human, N-terminal biotin, not carried by the letters).
T27 peptide: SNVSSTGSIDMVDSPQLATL
Briefly: peptide ELISA.
Experimental: as §1

The target in experiment [34] is ptau 406-429 (pS416, pS422) (human). Kind of experiment: peptide ELISA, 1 ug/mL IgG. This is another data set of the same source.
Experimental: (§5) Plates were coated in TBS overnight at 4° C. The following day, plates were washed five times with TB S/0.05% TWEEN® (TBS-T) and blocked with 150 IA of TBS-T plus 2.5% BSA (blocking buffer) for 2 hour. Tau peptides were captured on streptavidin-coated plates (Pierce) at a concentration of 0.43 μM in 100 μl of TBS. Tau peptides used to set up ELISA assays were the same used as baits in corresponding sorting experiment. Tau peptide-coated plates were then incubated at RT for 1.5 hours. All plates were then washed five times with TBS/0.05% TWEEN® and blocked with 150 μl and 300 μl (tau peptide plates only) of blocking buffer and incubated at RT for 2 hours. […] Primary antibodies were incubated for 2 hours at RT and washed five times in TBS-T. Finally, goat-anti human IgG Fab or goat anti-mouse HRP (Jackson Labs) was used at 1:2000 and 1:4000, respectively, and incubated for 1 hour at RT. Plates were washed five times in TBS-T and developed with SureBlue Reserve TMB Microwell Peroxidase Substrate (KPL). The reaction was halted by the addition of 50 μl and 100 μl (peptide plates) of TMB Stop Solution (KPL) and the absorbance at 450 nm was measured using an ELISA plate reader. Supernatants with the aforementioned binding activities were subsequently reconfirmed in an independent ELISA experiment.
Experiment [35] shares this target. Kind of experiment: peptide ELISA, biotinylated peptide on streptavidin plate, IgG titrated (Example 6).
Experimental: as §5
For experiment [36], the target named is T28, tau 389-441 (human, N-terminal biotin, not carried by the letters).
T28 peptide: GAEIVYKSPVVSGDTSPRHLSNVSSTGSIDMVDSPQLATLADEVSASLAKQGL
The description is as above.
Experimental: as §5

In experiment [37] the target is ptau 221-245 (pT231, pS238) (human). Kind of experiment: peptide ELISA, 1 ug/mL IgG.
Experimental: as §5
The target of experiment [38] is ptau 228-245 (pS238) (human). Briefly: peptide ELISA, 1 ug/mL IgG.
Experimental: as §5
Experiment [39] concerns the target ptau 225-245 (pS235, pS238) (human). Briefly: peptide ELISA, 1 ug/mL IgG.
Experimental: as §5

Where two headings read alike, the source gives them in different places. Where no end group is shown, it is not given here. The star is where a group is joined. Biotin = O=C1N[C@H]2[C@H](CS[C@H]2CCCCC(=O)*)N1 Some results are limits rather than exact numbers.

Sequence of tau 82-103 (human, N-terminal biotin, not carried by the letters) (peptide, as listed by the source limits assumed): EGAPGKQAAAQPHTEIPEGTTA
Sequence of ptau 299-323 p305, 316 (human) (main, as listed by the source): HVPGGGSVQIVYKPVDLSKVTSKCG
T22 sequence (main, as listed by the source): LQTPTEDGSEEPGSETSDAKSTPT

B1: CBTAU-27.1 (antibody, human IgG1, V domains shown)
VH: QVQLVESGPEMRKPGESLKISCKTSGYIFSDYWTAWVRQLPGKGLQWMGIIYSGDSDTRYHPSVQGHVTMSTDSSLTTAYLQWSSLKASDTGIYYCARLDARVDAGWQLDSWGQGTLVTVSS
VL: DIQLTQSPDSLAVSLGERATINCKSSQSVFSRDNNKNYLAWYQHKSGQPPKLLFFWASSRESGVSDRFSGSGSGTDFTLTIDNLQAEDVALYYCQHYFNTPHNFGQGTKLEIK
notes: recombinant full-length human IgG1
Consider B1, for which the OD450 in experiment [1] was under 0.3 od; in [2] it was under 0.3 od; in experiment [3], 0.5 to 1 od; in experiment [4], 0.5 to 1 od; in experiment [5] it was 0.5 to 1 od; in experiment [6], 0.5 to 1 od. The “EC50 (read off the curve)” value in experiment [7] is about 0.01 µg/mL.

B2: CBTAU-28.1 (antibody, human IgG1, V domains shown)
VH: QVQLQQSGAEVKKPGESLKISCEASGYSFTNYWIGWVRQMPGKGLEWMGIIYPGDSDTRYSPPFQGQVTITADRSITTAYLEWSSLKASDTAMYYCARVGRPSKGGWFDPWGQGTLVTVSS
VL: DIQMTQSPDSLAVSLGERATINCESSQTLLYSSNEKNYLAWYQQKPGQPPKLLISWASTPESGVPDRFSGSGSGTSFTLTISSLQAEDVAVYYCQQYYNSPYTFGQGTRLEIK
notes: as for B1
For B2, the binding result in experiment [8] is given as “no binding (tested: OD450 <0.3 at 1 ug/mL)”; in experiment [9], “no binding (tested: OD450 <0.3 at 1 ug/mL)”; in experiment [10] it was “no binding (tested: OD450 <0.3 at 1 ug/mL)”; in experiment [11], “binds”; in experiment [12] it was “binds”; in [13] it was “binds”. Further, the binding result in [14], in experiment [15], in experiment [16], in experiment [17], in [18] and in experiment [19] was “binds” in each case. Besides, the binding result in experiment [20], in experiment [21], in experiment [22], in experiment [23], in experiment [24] and in experiment [25] was “binds” in each case. For the same molecule, the binding result was “binds” in experiment [26]; “no binding (tested: 5 µg/mL)” in experiment [28]; “no binding (tested: 5 µg/mL)” in experiment [29]; “no binding (tested: 5 µg/mL)” in experiment [30]; “no binding (tested: 5 µg/mL)” in experiment [31]. Besides, in experiment [27], the “EC50 (read off the curve)” value was about 0.2 µg/mL.

B3: CBTAU-22.1 (antibody, human IgG1, V domains shown)
VH: QVQLVQSGAEVKKPGAPVKVSCETSGYRFSDYNVHWVRQAPGQGPEWIGRISPNSGGTKYAQKFQGRVTMTRDMSMNTAYMELSGLRSDDTAVYYCVRGHCDGTTCSRAYWGQGTLVTVSS
VL: DVVMTQSPLSLPVTPGEPASISCRSSQSLLHRSGHKYLHWYLQRPGQSPQVLIYLGSNRASGVPDRFSGSGSGTDFTLKISRVEAEDVGLYYCMQTLQTPWTFGQGTKVEIK
notes: as for B1
For the molecule B3, the values for the binding result in experiment [32], in experiment [33] and in experiment [36] were “no binding (tested: OD450 <0.3 at 2 ug/mL)”, “no binding (tested: OD450 <0.3 at 2 ug/mL)” and “no binding (tested: 5 µg/mL)”, respectively. This molecule yielded an OD450 in [34] of over 1.5 od. Besides, the concentration for a half-maximal effect (EC50 (read off the curve)) in experiment [35] is about 0.04 µg/mL.

B4: CBTAU-24.1 (antibody, human IgG1, V domains shown)
VH: QVQLVQSGAEVKKPGASVKVSCTASGYTFTGYYLHWVRQAPGQGLEWMGWVNPRSGGTSYPPKFQGRVTMTRDTSINTAYMDLTWLTSDDTAVYYCAVGRIPDVTAFDIWGQGTPVTVSS
VL: DIQMTQSPDSLAVSLGERATINCKSSESLLYDSNNKNYLAWYQQKPGQPPKLLIYWASTRESGVPDRFSGSGSETDFTLTISSLQAEDVAVYHCQQYFSTPWTFGQGTKLEIK
notes: as for B1
For the molecule B4, the OD450 in [37], in [38] and in [39] was over 1.5 od in each case.

Broadly, the EC50 (read off the curve) is the concentration that produces a half-maximal response. A lower EC50 (read off the curve) goes with an effect from little substance.
